The source of these data is the supplement of paper PMC10567573.

The nature of the series: protein stability index of a GFP-peptide fusion (GPS, HEK-293T) (PSI 1-6); higher = more stable.
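Also: lentivirally expressed fusions sorted by FACS into six bins by GFP to DsRed ratio, PSI derived from sequencing read proportions per bin multiplied by bin number.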

Regarding FQAKKIPIVSSLADPLDTPPDSKE, the protein stability index (parent: IOH5807_78, c terminus: a fixed tail appended) is 3.78.

Take KQGSMNFRFIPVLFPNAKKEHVPT: the protein stability index (parent: IOH5394_84, c terminus: a fixed tail appended) was determined as 1.99.

In the case of FGPDSKSSALACTLPTLPAKVYVG, under “parent: IOH5398_13, c terminus: a fixed tail appended”, the protein stability index worked out at 2.21.

With SVICRSLPEGMGPGESGQPPPAC [ALKBH7 WT], the protein stability index (parent: IOH5568_34, c terminus: native) was determined as 1.99.

Regarding ALLHQAETLQPSVWFGGREHVLMF, the protein stability index (parent: IOH5167_67, c terminus: a fixed tail appended) was determined as 2.09.

For the protein KKFRTKSRTWAGEKSKREMYSRLK, for the setting “parent: IOH5852_84, c terminus: a fixed tail appended”, the protein stability index was 2.82.

Take DPQSGELPSERWNPTQNVRTILLS [UBE2R2 WT]: for the setting “parent: IOH5652_18, c terminus: a fixed tail appended”, the protein stability index was 3.45.

LGCYAVYSLLYLEHKGWYSWVLSM: the protein stability index (parent: IOH5653_82, c terminus: a fixed tail appended) was 2.95.

For the protein VVTSAREHIYDLRSLENYHFVDEH [CLINT1 WT], the protein stability index (parent: IOH5634_17, c terminus: a fixed tail appended) was determined as 2.76.

For PRPPSNPPARGTLKTSNLPEELRK, under “parent: IOH5394_64, c terminus: a fixed tail appended”, the protein stability index came out at 4.55.

For the protein KEHVPTWLQNTHVYSWPKNKKNIL, the protein stability index (parent: IOH5394_87, c terminus: a fixed tail appended) amounted to 2.59.

On to YGHDYPRAAYQQVIQPALPGQPLP, for which, under “parent: IOH5394_47, c terminus: a fixed tail appended”, the protein stability index was found to be 1.96.

MNLHVYISEHEHFTDFNATSALFW: under “parent: IOH5653_18, c terminus: a fixed tail appended”, the protein stability index came to 2.74.

Regarding SCTIIFLASIFQLAMWTTALLHQA, the protein stability index (parent: IOH5167_64, c terminus: a fixed tail appended) came to 2.71.

As to FMEKRNQWLVSQLSAASPDTGHDS, the protein stability index (parent: IOH5394_23, c terminus: a fixed tail appended) is 2.4.

With QLIDPDENKENEAFEFKKPVRPVS, under “parent: IOH5852_23, c terminus: a fixed tail appended”, the protein stability index was found to be 3.49.

In the case of FGGGSTRGGSLLAGGGGFGGGSLS, the protein stability index (parent: IOH5303_3, c terminus: a fixed tail appended) amounted to 1.81.

As to SNFHINVEESVDGQVVSSHKREI, the protein stability index (parent: IOH5303_75, c terminus: native) came out at 2.11.

On to KPIVPTDGKRVIVVFHCEFSSERG, for which the protein stability index (parent: IOH5852_70, c terminus: a fixed tail appended) is 2.59.

As to PGQPLPGASVRGLHPVQKVILNYP, the protein stability index (parent: IOH5394_50, c terminus: a fixed tail appended) was 3.05.

As for TVAGKHQDLKYISPEIMASVLNGK, the protein stability index (parent: IOH5852_59, c terminus: a fixed tail appended) amounted to 3.04.

Regarding YPHCTGISQQDPESDSQGQGNGLF [FAM164C WT], the protein stability index (parent: IOH5453_15, c terminus: a fixed tail appended) was 3.84.

FVKILKDFPEEDDPTNWLRCYYYE: the protein stability index (parent: IOH5398_38, c terminus: a fixed tail appended) is 2.09.

For APWNYHYHCPGSPDHQVPYGHDYP, the protein stability index (parent: IOH5394_44, c terminus: a fixed tail appended) is 1.94.

In the case of QTSAFARQPRDELERVRVSCTIIF, the protein stability index (parent: IOH5167_61, c terminus: a fixed tail appended) came to 2.28.

For KIANLGSCNDSKLEFRSFWELIGE [S100A14 WT], the protein stability index (parent: IOH5597_12, c terminus: a fixed tail appended) turned out to be 2.01.

With RETASLKLLPHQPRIVEMKKGSNG, the protein stability index (parent: IOH5807_39, c terminus: a fixed tail appended) stood at 3.37.
